Target: Toll-like receptor 2 (TLR2), endogenous in HT29 cells (human (endogenous in HT29)) (UniProt O60603)
Chain of UniProt O60603 (O60603 21-784): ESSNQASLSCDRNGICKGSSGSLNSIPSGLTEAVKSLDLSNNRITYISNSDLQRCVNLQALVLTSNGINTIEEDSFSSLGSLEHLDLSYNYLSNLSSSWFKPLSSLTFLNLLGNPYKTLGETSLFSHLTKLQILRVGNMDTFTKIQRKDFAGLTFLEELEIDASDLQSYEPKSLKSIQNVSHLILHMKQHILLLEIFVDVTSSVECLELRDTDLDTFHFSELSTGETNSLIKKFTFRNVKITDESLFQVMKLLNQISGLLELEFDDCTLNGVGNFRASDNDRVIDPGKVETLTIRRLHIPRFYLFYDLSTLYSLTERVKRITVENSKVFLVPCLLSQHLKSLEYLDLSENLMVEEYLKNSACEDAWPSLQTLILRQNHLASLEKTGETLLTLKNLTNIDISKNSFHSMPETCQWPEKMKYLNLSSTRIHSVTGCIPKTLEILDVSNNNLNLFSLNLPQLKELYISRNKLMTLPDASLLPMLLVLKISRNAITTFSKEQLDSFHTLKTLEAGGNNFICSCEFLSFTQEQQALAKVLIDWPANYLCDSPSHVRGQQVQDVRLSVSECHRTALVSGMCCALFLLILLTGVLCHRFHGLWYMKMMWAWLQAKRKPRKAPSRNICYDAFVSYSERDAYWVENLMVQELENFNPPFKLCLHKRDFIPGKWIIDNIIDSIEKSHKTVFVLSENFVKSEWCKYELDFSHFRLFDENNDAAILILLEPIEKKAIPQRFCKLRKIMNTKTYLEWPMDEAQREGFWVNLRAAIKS

## GbpA domain 4, purified recombinant (domain or fragment)
  IL-8 secreted by HT29 cells treated with 250 ng GbpA 4 for 8 h (sandwich ELISA): 443 pg/mL
